Assay results from PMC10275640.

Key:
[1] = biological target: Uso1-HA3 (native full-length Uso1 in Aspergillus extract) (Aspergillus nidulans); experiment: SEC; Aspergillus cell extract on Superose 6 10/300 in 25 mM Tris-HCl pH 7.5, 600 mM KCl, 4 mM EDTA, 1 mM DTT; fractions blotted with α-HA
[2] = biological target: Uso1ΔCTR-His6x (residues 1–1040) (Aspergillus nidulans); experiment: AUC + other: dynamic light scattering; sedimentation velocity (20 °C, 48,000 rpm, PBS with 5% glycerol and 1 mM β-mercaptoethanol) and DLS at 20 °C; molecular mass from the Svedberg equation, compared with the predicted monomer
[3] = biological target: Bos1-GST (Bos1 cytoplasmic domain, residues 1–219); experiment: GST pull-down with purified proteins, anti-His6x western blot quantitation; settings: 4 data points; parent: est. 0.5; read off a plot
[4] = biological target: Bos1-GST (Bos1 cytoplasmic domain, residues 1–219); experiment: GST pull-down with purified proteins, anti-His western blot quantitation; settings: n = 3; parent: est. 0.7; read off a plot
[5] = biological target: Bet1-GST (Bet1 cytoplasmic domain, residues 1–144); experiment: as above; settings: n = 3, read off a plot
[6] = biological target: Bet1-GST (Bet1 cytoplasmic domain, residues 1–144) (Aspergillus nidulans); experiment: pull-down; 75 µg SNARE-GST on glutathione Sepharose; His6 preys at 0.2 µM, overnight at 4 °C in 25 mM HEPES-KOH pH 7.5, 150 mM NaCl, 10% glycerol, 0.1% Triton X-100, 0.1 mM DTT; anti-His blot
[7] = biological target: Uso1-His6x (full-length Uso1, residues 1–1103) (Aspergillus nidulans); experiment: SEC; bacterially expressed, purified His-tagged reference proteins run on the same Superose column; fractions blotted with α-His
[8] = biological target: Uso1-His6x (full-length Uso1, residues 1–1103) (Aspergillus nidulans); experiment: AUC + other: dynamic light scattering; sedimentation velocity (20 °C, 48,000 rpm, PBS with 5% glycerol and 1 mM β-mercaptoethanol) and DLS at 20 °C; molecular mass from the Svedberg equation, compared with the predicted monomer
[9] = biological target: Uso1(E6K/G540S)ΔCTR-His6x (residues 1–1040) (Aspergillus nidulans); experiment: as above
[10] = biological target: Bos1-GST (Bos1 cytoplasmic domain, residues 1–219) (Aspergillus nidulans); experiment: pull-down; 75 µg SNARE-GST on glutathione Sepharose; His6 preys at 0.2 µM, overnight at 4 °C in 25 mM HEPES-KOH pH 7.5, 150 mM NaCl, 10% glycerol, 0.1% Triton X-100, 0.1 mM DTT; anti-His blot
[11] = biological target: Uso1(E6K/G540S)-His6x (full length) (Aspergillus nidulans); experiment: AUC + other: dynamic light scattering; sedimentation velocity (20 °C, 48,000 rpm, PBS with 5% glycerol and 1 mM β-mercaptoethanol) and DLS at 20 °C; molecular mass from the Svedberg equation, compared with the predicted monomer
[12] = biological target: Uso1 CCD-His6x (coiled-coil domain, residues 660–1103) (Aspergillus nidulans); experiment: as above

## Uso1-HA3 (native full-length Uso1 in Aspergillus extract) (natural protein)
[1]
  stoichiometry N: 2

## Uso1ΔCTR-His6x (residues 1–1040) (domain or fragment)
[2]
  stoichiometry N: 2

## Uso1 GHD-His6x (globular head domain, residues 1–659) E6K; G540S
[3]
  response (% of input prey bound): 35
[4]
  response: 21 % bound prey
[5]; parent: est. 30
  response: 38 % bound prey

## Uso1-His6x (full-length Uso1, residues 1–1103) (natural protein)
[6]
  percent of the prey pulled down: 70%
[7]
  stoichiometry N: 2
[8]
  stoichiometry N: 2

## Uso1(E6K/G540S)ΔCTR-His6x (residues 1–1040) (domain or fragment)
[9]
  stoichiometry N: 2

## Uso1 GHD-His6x (globular head domain, residues 1–659) G540S
[3]
  response (% of input prey bound): 35

## Uso1(E6K/G540S)-His6x (full length) (natural protein)
[10]
  fold change in protein retained against wild-type Uso1: 5 fold
[11]
  stoichiometry N: 2

## Uso1 CCD-His6x (coiled-coil domain, residues 660–1103) (domain or fragment)
[12]
  stoichiometry N: 2

## Uso1 GHD E6K (single mutant), His-tagged (domain or fragment)
[10]
  fold less efficient than G540S GHD: 3 fold

## Uso1-His6x (full-length Uso1, residues 1–1103) E6K; G540S
[5]; parent: est. 68
  response: 60 % bound prey
